Results as given in patent publication US10239925B2, “Peptides and combination of peptides for use in immunotherapy against ovarian cancer and other cancers” (IMMATICS BIOTECHNOLOGIES GMBH, priority 2015, dated 2019).

target: HLA-A*02:01 (Homo sapiens, UniProt P04439, D140Y/D185E/D98H/E176V/E277Q/G131W/G231S/I119V/I121R/I166T/I218V/L300P/L318F/N151K/N90K/P208A/P217A/Q86G/Q94H/R138H/R169H/T345S); assay: MHC binding assay (UV-ligand exchange, anti-β2m ELISA, peptide exchange yield); settings: binding to HLA-A*02:01
In short: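 Peptide-MHC complexes formed by UV-ligand exchange, cleaving a UV-sensitive placeholder peptide in favour of the test peptide. Exchange yield measured by ELISA: monomers diluted 100-fold onto streptavidin-coated plates, 1 h 37 °C, detected with 2 ug/ml HRP anti-β2m and TMB, absorbance at 450 nm.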

| Substance | Peptide exchange (MHC class I binding score, peptide exchange yield) |
| --- | --- |
| 485 (NVPDSFNEV; listed as Homo sapiens) [compound 485] | “+++” (>50 = +++) |
| 486 (AVMESIQGV; listed as Homo sapiens) [compound 486] | “+++” (>50 = +++) |
| 487 (LLINSVFHV; listed as Homo sapiens) [compound 487] | “+++” (>50 = +++) |
| 488 (FLAEDPKVTL; listed as Homo sapiens) [compound 488] | “+++” (>50 = +++) |
| 490 (FLLQHVQEL; listed as Homo sapiens) [compound 490] | “+++” (>50 = +++) |
| 491 (GLNDRSDAV; listed as Homo sapiens) [compound 491] | “++” (>20% = ++) |
| 492 (SLFDGFADGLGV; listed as Homo sapiens) [compound 492] | “+++” (>50 = +++) |
| 493 (GLLGEKTQDLIGV; listed as Homo sapiens) [compound 493] | “+++” (>50 = +++) |
| 494 (ALQPEPIKV; listed as Homo sapiens) [compound 494] | “++” (>20% = ++) |
| 495 (FIFSEKPVFV; listed as Homo sapiens) [compound 495] | “+++” (>50 = +++) |
| 496 (FLVEKQPPQV; listed as Homo sapiens) [compound 496] | “+++” (>50 = +++) |
| 497 (GLLEKLTAI; listed as Homo sapiens) [compound 497] | “+++” (>50 = +++) |
| 498 (KLWTGGLDNTV; listed as Homo sapiens) [compound 498] | “+++” (>50 = +++) |
| 500 (SLMEDQVLQL; listed as Homo sapiens) [compound 500] | “+++” (>50 = +++) |
| 501 (LLDPNVKSIFV; listed as Homo sapiens) [compound 501] | “+++” (>50 = +++) |
| 502 (RLLAQVPGL; listed as Homo sapiens) [compound 502] | “+++” (>50 = +++) |
| 503 (SLNHFTHSV; listed as Homo sapiens) [compound 503] | “+++” (>50 = +++) |
| 504 (GLSDGNPSL; listed as Homo sapiens) [compound 504] | “++” (>20% = ++) |
| 505 (SLAPGDVVRQV; listed as Homo sapiens) [compound 505] | “++” (>20% = ++) |
| 506 (KLLGKVETA; listed as Homo sapiens) [compound 506] | “+++” (>50 = +++) |
| 507 (KLIDDQDISISL; listed as Homo sapiens) [compound 507] | “+++” (>50 = +++) |
| 508 (ILAQEQLVVGV; listed as Homo sapiens) [compound 508] | “+++” (>50 = +++) |
| 509 (FLFDTKPLIV; listed as Homo sapiens) [compound 509] | “+++” (>50 = +++) |
| 510 (KLYSVVSQL; listed as Homo sapiens) [compound 510] | “++” (>20% = ++) |
| 512 (SLSEIVPCL; listed as Homo sapiens) [compound 512] | “+++” (>50 = +++) |
| 513 (SLWPSPEQL; listed as Homo sapiens) [compound 513] | “++” (>20% = ++) |
| 514 (ILVDWLVQV; listed as Homo sapiens) [compound 514] | “+++” (>50 = +++) |
| 515 (LLQELVLFL; listed as Homo sapiens) [compound 515] | “+++” (>50 = +++) |

Continued, values first:

| Peptide exchange (MHC class I binding score, peptide exchange yield) | Substance |
| --- | --- |
| “++” (>20% = ++) | 516 (AVGPASILKEV; listed as Homo sapiens) [compound 516] |
| “+++” (>50 = +++) | 517 (LLMPIPEGLTL; listed as Homo sapiens) [compound 517] |
| “+++” (>50 = +++) | 519 (GLLHLTLLL; listed as Homo sapiens) [compound 519] |
| “+” (>10% = +) | 520 (LAVHPSGVAL; listed as Homo sapiens) [compound 520] |
| “+++” (>50 = +++) | 521 (MLLTKLPTI; listed as Homo sapiens) [compound 521] |
| “++” (>20% = ++) | 522 (TLWYRSPEV; listed as Homo sapiens) [compound 522] |
| “++” (>20% = ++) | 523 (YQIPRTFTL; listed as Homo sapiens) [compound 523] |
| “++” (>20% = ++) | 524 (ALIENLTHQI; listed as Homo sapiens) [compound 524] |
| “+++” (>50 = +++) | 525 (VLLEAGEGLVTI; listed as Homo sapiens) [compound 525] |
| “++” (>20% = ++) | 526 (RLAEVGQYEQV; listed as Homo sapiens) [compound 526] |
| “++++” (>75% = ++++) | 527 (FLLEPGNLEV; listed as Homo sapiens) [compound 527] |
| “+++” (>50 = +++) | 528 (SVAEGRALMSV; listed as Homo sapiens) [compound 528] |
| “+++” (>50 = +++) | 529 (LLADELITV; listed as Homo sapiens) [compound 529] |
| “+++” (>50 = +++) | 530 (VMYADIGGMDI; listed as Homo sapiens) [compound 530] |
| “+++” (>50 = +++) | 531 (YTLPIASSIRL; listed as Homo sapiens) [compound 531] |
| “+++” (>50 = +++) | 537 (TLAPGEVLRSV; listed as Homo sapiens) [compound 537] |
| “++” (>20% = ++) | 538 (LLLAHIIAL; listed as Homo sapiens) [compound 538] |
| “+++” (>50 = +++) | 539 (ALFDAQAQV; listed as Homo sapiens) [compound 539] |
| “+++” (>50 = +++) | 541 (SMLEPVPEL; listed as Homo sapiens) [compound 541] |
| “+++” (>50 = +++) | 542 (RVWDISTVSSV; listed as Homo sapiens) [compound 542] |
| “+++” (>50 = +++) | 543 (GLLPTPITQQASL; listed as Homo sapiens) [compound 543] |
| “+++” (>50 = +++) | 544 (LLWDVPAPSL; listed as Homo sapiens) [compound 544] |
